Assay results: patent US20100129294A1

Molecular target: Aβ40 fibrils formed from a synthetic Aβ40 peptide (human)
Experiment: cell-based or functional assay

nattokinase (from UniProt P35835 107-381) (enzyme)
rate of Aβ fibril degradation (37 C, pH 7.4, ThT binding assay): 0.015 s⁻¹
